Target: Recombinant human HER2 (human) (UniProt P04626)
Test: ELISA; recombinant HER2 (50 ng/well) coated in PBS pH 7.4; scFv or conjugate 250 to 0.005 nM, 4-fold dilutions in 5% skim milk in PBST, room temperature; detected by rabbit anti-His-tag antibody and HRP-linked anti-rabbit IgG

- EC50: 1.47 nM
Substance: 4D5scFv-G178-HSA (from UniProt P02768 25-609)

From article PMC10996255
